Measurements published in patent publication EP0799050B1, “RADIOLABELED ANNEXIN-GALACTOSE CLUSTER CONJUGATES” (NEORX CORPORATION, priority 1994, dated 1996).

Assay: blood clearance in the swine model
Details: in vivo
Procedure: Annexin V-galactose was radiolabeled with technetium-99m using a diamide dimercaptide (N2S2) chelate as described by Kasina et. al., J. Nucl. Med. 32: 1445-51, 1991. The preformed active ester chelate was diluted with 2.0 ml water and purified before conjugation to annexin V-galactose using a modified conditioned C-18 column (commercially available from J.T. Baker), as described by Fritzberg et. al., Proc. Natl. Acad. Sci. USA 85: 4025-29, 1988, washing with 2.0 ml water eight times followed by drying the column for 5 min and eluting with 100% acetonitrile. The solvent was removed under a steady stream of N2. Then 0.15 ml of PBS, 0.35 ml of annexin V-galactose (4.7:1 galactose:annexin V) at 1.0 mg/ml, and 0.2 ml of 0.2M bicarbonate buffer (pH 10.0) were added for conjugation to Tc-99m-N2S2-TFP ester. […] Fractions of 1.0 ml were collected, and fractions containing annexin V were pooled. Protein concentration was determined by UV absorption at 280 nm. […] The ITLC sheets were cut into two halves, and each half was counted in a gamma counter or a dose calibrator. […] An animal model, as previously described in Example III, was employed to evaluate blood clearance of the molecules.

Tc-99m-annexin V: annexin V radiolabeled with Tc-99m by a diamide dimercaptide N2S2 chelate (Example I)
%ID/g a: a = 0.0389 %ID/g
%ID/g b: b = 0.0300 %ID/g
t1/2 a: a = 9.6 min
t1/2 b: b = 46 min
